Assay: soluble on expression in E. coli; label from the status in PepcDB or PDB records

Sequence | soluble on expression in E. coli
DYMRFALKGKQGKGMKMPEGVVSSNGEYYMKERMVTDPGLTLDNSGIAPQPSRRAKEDDGGAAEGGRQAADDEVRQDMQETPVLPSNTGSKQQQLDSLF | not soluble
MTDKLPFALYSRCVKAGKRFYYIDAKRDSKGNDYLVITESNSAEEGSAMTRHKVFLYREDFAKFTEAFLDVLKSFEKRSGVSGCEQAIGLSELEQSLSDMTTGVEGLAESSDSILEEDEPLKIDFDF | not soluble
DVTNAEKLVYKYTNIAHSANPMYEAPSITDGKIFFNRKFKTPSGKEAACASCHTNNPANVGKNIVTGKEIPPLAPRVNTKRFTDIDKVEDEFTKHCNDILGADCSPSEKANFIAYLLTETKPTK | soluble
MSLKIVRILEKDLPITSPGANAVVDFAGLTTSAVAIVTDAFRDGKPLVGYGFGSIGRWSVGGMLRERFIPRILAVEPASLQDETGNIDPFACWNAAMRNEKPGGHGDRATALGALDMALWDLRAKADGVPLYRLLADRYRDGQADEDVAVYAAGGYYQPGSNYRSLQDELKGYIDRGYNEVKIKIGGAPLAEDMRRIEAAIAVLGDGARLAVDANGRFDLETALAYGRAMSDYGLRWYEEPGDPLDFRLMAVLAEHYDGPLATGENLFSSQDARNLLRYGGMRAERDFVQFDCGLAYGLPDYLKVLDIMRRHGWSPRRLHPHGGHQMSLHLAAGLGLGGNESYPGVFQPLGGFADCSKVENGRVRLPDAPGVGLELKSELKTWLDEAFEEGHHHHHH | not soluble
MGSDKIHHHHHHMSNVTAEQKKEVKGRGFLPSRDGEHFAARIITVNGVINASQAKKIAEAAEKFGNGQLAFTTRLTVELPGVKFEDIEALSEFIASENLITGGTGSRVRPVVACKGTVCVHGLADTQALAAEIHEEFYKNWYDVKLPHKFKIGVGGCPNNCIKPDLNDLGIVGQRVPDYDSELCVGCKKCAVVEVCPVKAAKLTDKGKLEIDSNLCNNCGKCIESCNFDSIEEKESGYKVYIGGKWGKSVRPGTQIDRLFSKEELMTLIEKAILLFREQGNTGERFGITIDRIGADKFIEMLLSDEVLERKEEILEALLHLTGGAVC | not soluble
MQLVVARIGRAHGIKGEVTVEVRTDEPELRLGPGAVLATDPASTGPLTIESGRVHSGRLLLRFAGVHDRTGAEALRNTLLIADVDPDERPEDEDEYYDHQLIDLDVVTEDGTEVGRITEISHLPTQDLFVVERPDGSEVYVPFVSEIVTGIDLDAQRAVIDPPPGLIDDRAEIASARDAGAEDAGDEALEHHHHHH | soluble
MAHHHHHHMSDLDKIRSKLEALKSKTEVKTDERIEIAKKNDPFNDLKVHILNVLDETRKCIREKESLQNVHGNNIEVIKRGNIIYNNMKNLDTYFLKLEEILKKQEKKKYAYSREELFDKNETFELLKRQIYECKKLSNYEHIKDTCVMDFSDFKNKQQVESKS | soluble
MSLKISSMFTPIRIGSMTVPNRFVVPPMGNNFANTDGTLSETSKAYYLERALGGFGLITIESSVVDKKAKGGPRKPCLYDDSTIDSFKNVIDACHDAGSKVSIQLQHAGSEGNEKVAGHPLKAASAIPASNGRNTPLAITTEEIYELIESYGDAALRAQKAGADAVEVHCAHGYLVSSFISQRTNKRVDEFGGCFENRMRLPRLIIENIRKKVGNSLAILCRINSTDDVPGGIDVHDSSVIAAYLEDCGIDGLHVSRSIHIHDEYMWAPTTLHAGFSAELVTEIKKAVSIPVITVGRYTEPQFAELMVRQGRCDLVAFGRQSLADPEMPNKAKNGKLDEMIPCIACLQGCVPNMFQGKPIACLANPILGHEAELKPAEISKEVLVVGGGVGGMLAAWVCAKRGHNVTLVEKSEVLGGQMRLAAYPPGKGDITNLVRSYISKCNQYGVKICTNTEATVELIKEKSPDVVIIATGATPLVLPIPGINDSGLIHAVDLLDGKKSCGKKVLVVGGGMVGCEVAAFLGEQEHEVTVIELREEVGADVISEHRKFLMNDFENYNIHTITGAKVSKFYDDGVDYLLTDGTEHDLKGFDSVVLAMGSRNYDPLSEVIKEVVKETYIVGDAVKARRALDATKEAFEVALNIEGHHHHHH | soluble
MKTENFRSYNQRVYSETLNDGLKITLIPKKDFHSVFAALFVNAGATDQQIVDEKGETIIFPSGTAHFAEHKMFEKKNGDVSEIFSAYGAFSNAYTSQSQTVYYFQGTENIDQSIKLLLQFVQEPYYTEASVAKEQGIIGQEISMYQDMPDWVSSFGLMKNLYRKQPLGEDIAGNIDSIETINADLLYKFHRYFYQPSNLQLKIAGNIDPTGLLALLKQTQARLTRPRINFSRVNRFNAKIPVKKSAEQNMPVALPLLAAGIKGSGNLPDIDTAIDLSFSSDLILDIYFSDSSDWYLRNYNQGFLNDDFSAQADVGRNYNFITFTGHSENKELFKEIYSQLKNISYSQELEKEFQWQKKASLGELSMSLDQLENNVFTIADVFNTDVNIFRVIEKLRELTYRKAVNLFESYYNLDSFSSFCVNPVE | not soluble
MSHCSCHDKPQHSLLPAAYRILSITRHTPLEWNFRVAVDFPAHWGQFVEVSLPRVGEAPISVSDYGDGWIDLLIRNVGKVTSALFTLKEGDNVWLRGCYGNGYPVDTLRHKPLLVVAGGTGVAPVKGLMRYFVENPQEIGQLDMILGYKNRDCVLYKEEMATWRGKHNLVLTLDEGEADDRYQIGRVTDRLADMTLSDIDTMQAIVVGPPIMITFTVKMLLQKGLKPEQIWVDYERRMACSVGKCGHCRMGEVYVCTDGPIFNYAVAQRFAD | not soluble
MSLTQTILVIDDDAAVRGSFQLVLGEIGCVVRVAEDGLQGIAMAREERPDLIFLDLKMPGIDGVETMRRLLAMDPTFNIYIVTAFSQEYLDDLKQAQAEGMTFQLANKPLSSTQIRHIARSVRSLSNVSKDNHRISLTLYVVSVNPEIQKVVDQLSNVLAATYRAGFWVLNVVEVLGMPEKALEKDVFATPMLVREVPEPVLKLLGDLSRMHSVLSAITAENGHGAGTEGHHHHHH | soluble
MDAGDASRLGESLDAVSAAFQSRVMELQELVLARNMYPATAIPDLAAVDVSLTAMEAQLQAVRRRLQEEREAFPKAKKLVQQSLKQQRRLQLMLANMPTGMREDVFATPLEHNSSMMFPESLNFSSAVPEVRDHDLKIKEEPTAPPKKKGRGPAPRWYISTEELDSLSSYMRGRLTLEKVNIAINEVASYADGNAHLVACPKKKLSEDTWEKALELRDIAARESVKGRHFFLETDIKGPGLKLDTTGKAILTVRASTIMLYMLPLKLPYWIE | soluble
MSLKGDHAGKDRLIYKLQQTDSSYRYTNGTQGTAWTLIMENPLKGYGYGDDIYHAIYNKRVVDFPSWKFRQSIGPHNEGHHHHHH | soluble
MMRDSPSIQGTLDAATQHALLAGRHADPFSVLGPHQAGAHTVVRVLAPGARTVMAVLPGGQRTPLLPMQPGLFENTVPGLQPGAPAAYRLCIEWEGGIQHTADPYAFGPVLD | not soluble
MARVAIPSVGKDLSSMVSDRFARAEYFIIYDTESGNVEVVENTIADAHGTGPKVVQSLVSKGVEYLIASNVGRNAFETLKAAGVKVYRFEGGTVQEAIDAFSEGRLEELTTFTREG | soluble
VQQTERAVMLRFGRVVESDVKPGLHFKIPYVNQVRKFDARLLTLDAPTQRFLTLEKKAVMVDAYAKWRVADAERFYTATSGLKQIADERLSRRLEAGLRDQFGKRTLHEVVSGERDALMGDITASLNRMAQKELGIEVIDVRVKAIDLPKEVNRSVFERMSTEREREAREHRAKGRELAEGIRADADRQRRVIVAEAYRESEETRGDGDSKAAAIYAKAYNQDPEFYSFYRSLKAYRESFAEKRDVLVLDPSSEFFRY | not soluble
MKLSHDCIRDILLFSESLPYNEPAFGDKIFKSDLLKKYSSEEINYAVSKLGDDDAQLIKGYVKFASNKPYMTCISSLTFDGHKYLDNIRDPKIWKESKKISSKLASVSIDIMSEIAAKVITKTLGLD | not soluble
MGSDKIHHHHHHMKKIPCVMMRGGTSRGAFLLAEHLPEDQTQRDKILMAIMGSGNDLEIDGIGGGNPLTSKVAIISRSSDPRADVDYLFAQVIVHEQRVDTTPNCGNMLSGVGAFAIENGLIAATSPVTRVRIRNVNTGTFIEADVQTPNGVVEYEGSARIDGVPGTAAPVALTFLNAAGTKTGKVFPTDNQIDYFDDVPVTCIDMAMPVVIIPAEYLGKTGYELPAELDADKALLARIESIRLQAGKAMGLGDVSNMVIPKPVLISPAQKGGAINVRYFMPHSCHRALAITGAIAISSSCALEGTVTRQIVPSVGYGNINIEHPSGALDVHLSNEGQDATTLRASVIRTTRKIFSGEVYLP | not soluble
PMMPPVGVQASILSHDTIRITWADNSLPKHQKITDSRYYTVRWKTNIPANTKYKNANATTLSYLVTGLKPNTLYEFSVMVTKGRRSSTWSMTAHGTTFEL | soluble
MRTNSEIISLIQSKVEERKMSMSELARNVGIAKSTMSRYFNKTREFPLNRADDFAKALNISTEFLLGIDLNSEVDGSELLGIYRELEEQRRVIVLDTAKEQLEEQTKIINFSDKKTDIEDIFEVKGTTFAAAASGFGRGFEADDYDTYTVYTDEEPPHYDYAIGIRGDSMLPKYEQGDMLYIVDKGMSTYSGQLCIVVHNGNTYFKKVYTEHDGLRLVSLNKKYSDIFIGYPPAEDTYIKIYDVVGSFTPIEF | not soluble
MGSDKIHHHHHHMDLSNLNEKDMALGCKYCIKGEKLVLYITGLCEESCYYCPLSEKRKKKDVIFANEKQINSIEEAVEEARLCGSKGVGITGGNPLLRIERTVEYLKALKEEFGSDFHAHLYTTPKFVSEKNLKLLKDAGLDEIRLHSSKLFNDFENFDKLDFLEKLKLCKNYIKDVGVEIPGIPNFEKEILDLAFEIDKIGVKFLNINELEYSETNYQSLIDRGFSEKDDTTSRISGSFETAKYIIDNFKGKLIIHFCPSSLKDSVQMKNRLINRARNVAKPYEEITEEGLLLKGTINFKDLKDVSEVLEVLKENDVEFELLNDRLLLNPEILEDLIDHLKENNFDFKFSAYISEYYPTSDKLEVERIPLVTKKPNLKLKKK | not soluble
MGSDKIHHHHHHMIVALFALLASGCGHSQRTLEFRGICVDDPQGENGLYNPGRGFRLETAVDVLHEKDTPTEELNELSAKYVADSVSLSQSYFYLTYLIGKELSEENFRTMQAYFDELQKQGKKAVLRFAYERDFMGRSPVGPTGEQILAHLDQLKPFLEKNKDLILVVQAGMIGAWGEWHSSVQGLENSEETKAAVLEKLLSVVPAERNVQVRLPEFKNLLKDKPELYKRLSFHDDFIVIRPDRWDADMHEGTPKFDQIVAESPYLVVDGELPWGFWSVGADPDSPSAGWIIDGMQAARRLFLQHYTSLSIIHNYKEQHPNNRFDENNPPEYSMVVWKKTMITEDSLLQHHMPVSDSYFRKKDGTKVKRNMFDYIRDHLGYRIELQSLQLPSKFVSGKENVLKLSLKNRGFATVFGEHPVYFVLIDDAGEVTEFPTDANPKNWQPFEPKDSAYTSLMHTVDVSLELPASVTAGTYKLGLWIPDGSDRLRYNPRYAIHCANGDTDWWISKDGKYGVNVLTAVEVE | not soluble
MVLEGIHSHDPQARDIAIQYYHAAETTIYDYIARRHPQSAQCVTDFMSTVMSGLSAKAREGHSIEQLCATAALAGEAIKTLLKE | not soluble
MKWRSRQLSFSSAKWYGDVIWIFDPGIIGAQIDNEGDLKKCFIQTLFHSTGSRQSIRIWWREIMLSLILRIYLDKFLPWISLSIKEVGESSVINFSLWGCLHGTRFRRWYSPFQKLSALAITKKDVISSSWRCFNGMRCN | soluble
MGSDKIHHHHHHMVDTNHKIAFCIDSDGCAMDTMTYKHQLFFGPIAADIFGISEQERTSFLKEWDRVNLYSRTRGVNRFVGLVMGLEFAGVEHIDKLKEWVETTDSLSNNSLELALANDFSRDLEKALEWSNEVNRQIKNYEGDSLAFSGVLESLERLSQFGNVYVVSSANKEAVWQEWEEQGLLKYVDDIYCQDRGKKEDVIATLIASGYCRETILMVGDSLGDLAAAEQNGIAFYPVLVGKEVKSWEILREDIGEAFAKGQFEQQRQKESINTFWANLDN | not soluble
